# T1: gamma-conglutin (lupin, UniProt Q9FSH9;Q9FSH9 34-300;301-452)
# T1 sequence 1: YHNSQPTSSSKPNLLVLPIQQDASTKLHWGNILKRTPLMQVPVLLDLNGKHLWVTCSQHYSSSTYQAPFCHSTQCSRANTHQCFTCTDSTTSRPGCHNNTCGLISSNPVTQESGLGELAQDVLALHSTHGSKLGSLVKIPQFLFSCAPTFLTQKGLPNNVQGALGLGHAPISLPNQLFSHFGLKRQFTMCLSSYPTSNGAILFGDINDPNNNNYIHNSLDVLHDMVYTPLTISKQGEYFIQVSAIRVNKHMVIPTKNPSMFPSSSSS
# T1 sequence 2: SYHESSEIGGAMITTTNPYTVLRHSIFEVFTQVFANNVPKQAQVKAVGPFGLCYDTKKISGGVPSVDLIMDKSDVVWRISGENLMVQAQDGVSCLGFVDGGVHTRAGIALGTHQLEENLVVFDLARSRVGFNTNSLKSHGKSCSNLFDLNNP
# How the values were obtained:
# [1] = tested on: beta-conglutin (Lup an 1) (lupin); assay: SPR; conditions: 10 mM phosphate, 138 mM NaCl, 2.7 mM KCl, 1.5 mM MgCl2, pH 7.4; ELONA at 21 C, SPR temperature not stated (Biacore 3000, CM5)
# [2] = tested on: beta-conglutin (Lup an 1) (lupin); assay: competition; conditions: 10 mM phosphate, 138 mM NaCl, 2.7 mM KCl, 1.5 mM MgCl2, pH 7.4; ELONA at 21 C, SPR temperature not stated (Biacore 3000, CM5)
# gamma-conglutin = molecular target: T1, gamma-conglutin; assay: SPR; 10 uM DNA, 1.5 mM Mg2+; signal negligible; 10 mM phosphate, 138 mM NaCl, 2.7 mM KCl, 1.5 mM MgCl2, pH 7.4; ELONA at 21 C, SPR temperature not stated (Biacore 3000, CM5); conditions: protein: native, tags: none, label: none, single strand, predicted stem-loops and G-quadruplex (m-fold, QGRS)
molecule,measurement,setting,value
AGCTGACACAGCAGGTTGGTGGGGGTGGCTCACATCATGGTAGAATGACTGAACAGCGTTGATTAAAAGGCACGAGTCGAGCAATCTCGAAAT [Sequence 2 (S2)],Kd,[1],515 nM
AGCTGACACAGCAGGTTGGTGGGGGTGGCTTCCAGTTGGGTTGACAATACGTAGGGACACGAAGTCCAACCACGAGTCGAGCAATCTCGAAAT [Sequence 40 (S40)],IC50,[2],393 nM
same,Kd,[1],360 nM
Sequence 2 (S2) (structured_DNA) DNA: AGCTGACACAGCAGGTTGGTGGGGGTGGCTCACATCATGGTAGAATGACTGAACAGCGTTGATTAAAAGGCACGAGTCGAGCAATCTCGAAAT,binding result,gamma-conglutin,no binding
Sequence 40 (S40) (structured_DNA) DNA: AGCTGACACAGCAGGTTGGTGGGGGTGGCTTCCAGTTGGGTTGACAATACGTAGGGACACGAAGTCCAACCACGAGTCGAGCAATCTCGAAAT,binding result,gamma-conglutin; biotinylated probe S4 hybridised to 3' end for ELONA detection,no binding

# From PMC3328447, “DNA Aptamers against the Lup an 1 Food Allergen”
